Measurements taken from article PMC6879724, “Insect Hsp90 Chaperone Assists Bacillus thuringiensis Cry Toxicity by Enhancing Protoxin Binding to the Receptor and by Protecting Protoxin from Gut Protease Degradation” (mBio, 2019).

Key:
[1] = target: Cry1Ac protoxin (Bacillus thuringiensis (strain HD73), UniProt P05068 1-1178); assay: ELISA; plates coated with 0.5 ug protoxin or activated toxin in PBS; PxHsp90 in Hsp90 buffer (1 mM ATP, 1 mM Mg in PBS) added for 1 h at 37 C; detected with anti-polyhistidine-peroxidase antibody; one sample without ATP (binding significantly reduced); details: both partners purified
[2] = target: T1, Cry1Ab protoxin (Bacillus thuringiensis, UniProt P0A370 1-1155); assay: as above; details: both partners purified
T1 construct: also called 130-kDa protoxin

B1: Plutella xylostella Hsp90 (natural protein)
chain: not shown
notes: Hsp90 of Plutella xylostella, gene Pxhsp90 (GenBank AB214972.1), amplified from genomic DNA with primers from the start codon (NdeI) to the stop codon (BamHI); Cloned NdeI-BamHI into pET28b with its own stop codon, so the His tag is probably N-terminal (surmised); detected in the ELISA with an anti-polyhistidine antibody; also called PxHsp90; source: E. coli BL21 (pET28b), purified (Ni-NTA from …)
binding result [1]: binds | binding result [2]: binds
